Source: FireProtDB (doi:10.1006/abbi.1998.1072)
Several values for one entry are separate records, joined by “and”; a condition that tells them apart may be missing. Identical values can stand only once.

Details: pH 7, reversible: no, whole UniProt chain shown; for denaturant m value / denaturant midpoint (higher = more stable): GdnHCl, Tris-HCl 50 mM; for Tm: Thermal, HEPES 20 mM
[1] = Thermus thermophilus (strain ATCC 27634 / DSM 579 / HB8), 25 °C, CD
[2] = Thermus thermophilus (strain ATCC 27634 / DSM 579 / HB8), 25 °C, Fluorescence
[3] = Escherichia coli (strain K12), 25 °C, CD
[4] = Escherichia coli (strain K12), 25 °C, Fluorescence
[5] = Sulfolobus acidocaldarius (strain ATCC 33909 / DSM 639 / JCM 8929 / NBRC 15157 / NCIMB 11770), 25 °C, CD
[6] = Sulfolobus acidocaldarius (strain ATCC 33909 / DSM 639 / JCM 8929 / NBRC 15157 / NCIMB 11770), 25 °C, Fluorescence
[7] = Sulfolobus acidocaldarius (strain ATCC 33909 / DSM 639 / JCM 8929 / NBRC 15157 / NCIMB 11770), 50 °C, CD

B1: Inorganic pyrophosphatase wild type, P38576 (protein)
chain: MANLKSLPVGDKAPEVVHMVIEVPRGSGNKYEYDPDLGAIKLDRVLPGAQFYPGDYGFIPSTLAEDGDPLDGLVLSTYPLLPGVVVEVRVVGLLLMEDEKGGDAKVIGVVAEDQRLDHIQDIGDVPEGVKQEIQHFFETYKALEAKKGKWVKVTGWRDRKAALEEVRACIARYKG
**Q.** Which denaturant m value [1] does the source give for B1 here?
**A.** 5.74 kcal/mol/M

**Q.** And the “denaturant midpoint (higher = more stable)” value (shortened to “denaturant midpoint”) [1]?
**A.** 4.7 M

**Q.** And the denaturant m value [2]?
**A.** 5.74 kcal/mol/M

**Q.** What about the “denaturant midpoint” value [2] of the same protein?
**A.** 5.1 M and 4.7 M

**Q.** What about the Tm (Thermus thermophilus (strain ATCC 27634 / DSM 579 / HB8), CD, EDTA 5 mM) of the same protein?
**A.** 86 °C

**Q.** What about the Tm (Thermus thermophilus (strain ATCC 27634 / DSM 579 / HB8), CD) of the same protein?
**A.** 96 °C

B2: Inorganic pyrophosphatase wild type, P0A7A9 (protein)
chain: MSLLNVPAGKDLPEDIYVVIEIPANADPIKYEIDKESGALFVDRFMSTAMFYPCNYGYINHTLSLDGDPVDVLVPTPYPLQPGSVIRCRPVGVLKMTDEAGEDAKLVAVPHSKLSKEYDHIKDVNDLPELLKAQIAHFFEHYKDLEKGKWVKVEGWENAEAAKAEIVASFERAKNK
**Q.** For B2, which denaturant m value [3] is on record?
**A.** 3.35 kcal/mol/M

**Q.** And the “denaturant midpoint” value [3]?
**A.** 4.9 M

**Q.** What about the denaturant m value [4] of the same protein?
**A.** 3.35 kcal/mol/M and 2.63 kcal/mol/M

**Q.** What about the “denaturant midpoint” value [4] of the same protein?
**A.** 4.9 M and 4.5 M

**Q.** And the Tm (Escherichia coli (strain K12), CD, EDTA 5 mM)?
**A.** 58 °C

B3: Inorganic pyrophosphatase wild type, P50308 (protein)
chain: MKLSPGKNAPDVVNVLVEIPQGSNIKYEYDDEEGVIKVDRVLYTSMNYPFNYGFIPGTLEEDGDPLDVLVITNYQLYPGSVIEVRPIGILYMKDEEGEDAKIVAVPKDKTDPSFSNIKDINDLPQATKNKIVHFFEHYKELEPGKYVKISGWGSATEAKNRIQLAIKRVSGGQ
**Q.** What does the source list for B3?
**A.** denaturant m value [5]: 5.5 kcal/mol/M; denaturant midpoint (higher = more stable) [5]: 3.1 M; denaturant m value [6]: 8.13 kcal/mol/M and 6.93 kcal/mol/M and 5.98 kcal/mol/M; denaturant midpoint (higher = more stable) [6]: 3.2 M and 2.9 M and 3.1 M; denaturant m value [7]: 6.93 kcal/mol/M and 5.74 kcal/mol/M; denaturant midpoint (higher = more stable) [7]: 2.8 M and 2.9 M
